Measured values as given in article doi:10.1101/2024.09.12.612615.

Biological target: Asp64 (UniProt position 64, EGCPTDSIKVA)
Assay: kinetics
Conditions: 28 °C; reduced [4Fe-4S] cluster undergoing air oxidation

[4Fe-4S] ferredoxin (BtFd) (Bacillus thermoproteolyticus)
pKa: between a pH of 6.0 to 7.0
